Reference: patent US20150080554A1

Key:
[1] = biological target: polyclonal human IgG (Gammanorm, Octapharma) (human); experiment: gradient elution pH 6 to pH 3, 0.1 M citrate, from ligand-coupled agarose column
[2] = biological target: polyclonal human IgG (Gammanorm, Octapharma) (human); experiment: breakthrough on ligand-coupled agarose column; 1 mg/ml IgG in 20 mM PBS + 0.15 M NaCl pH 7.4; residence time 6 min; ligand density 6.7 mg/ml
[3] = biological target: polyclonal human IgG (Gammanorm, Octapharma) (human); experiment: breakthrough on ligand-coupled agarose column; 1 mg/ml IgG in 20 mM PBS + 0.15 M NaCl pH 7.4; residence time 2.4 min; ligand density 6.7 mg/ml
[4] = biological target: mAb (Table 2, column 'pH mAb'); experiment: gradient elution pH 6 to pH 3, 0.1 M citrate, from ligand-coupled agarose column; about 10 mg cell culture supernatant loaded
[5] = biological target: polyclonal human IgG (Gammanorm, Octapharma) (human); experiment: breakthrough on ligand-coupled agarose column; 1 mg/ml IgG in 20 mM PBS + 0.15 M NaCl pH 7.4; residence time 6 min; ligand density 6.9 mg/ml
[6] = biological target: polyclonal human IgG (Gammanorm, Octapharma) (human); experiment: breakthrough on ligand-coupled agarose column; 1 mg/ml IgG in 20 mM PBS + 0.15 M NaCl pH 7.4; residence time 2.4 min; ligand density 6.9 mg/ml
[7] = biological target: polyclonal human IgG (Gammanorm, Octapharma) (human); experiment: breakthrough on ligand-coupled agarose column; 1 mg/ml IgG in 20 mM PBS + 0.15 M NaCl pH 7.4; residence time 6 min; ligand density 5.3 mg/ml
[8] = biological target: polyclonal human IgG (Gammanorm, Octapharma) (human); experiment: breakthrough on ligand-coupled agarose column; 1 mg/ml IgG in 20 mM PBS + 0.15 M NaCl pH 7.4; residence time 2.4 min; ligand density 5.3 mg/ml

Substance	elution pH at peak apex, pH hIgG (first peak) [1] [pH]	elution pH at peak apex, pH hIgG (second peak) [1] [pH]	Qb10% (dynamic binding capacity at 10% breakthrough) [2] [mg/ml resin]	Qb80% (dynamic binding capacity at 80% breakthrough) [2] [mg/ml resin]	Qb10% (dynamic binding capacity at 10% breakthrough) [3] [mg/ml resin]	Qb80% (dynamic binding capacity at 80% breakthrough) [3] [mg/ml resin]	elution pH at peak apex, pH mAb [4] [pH]	Qb10% (dynamic binding capacity at 10% breakthrough) [5] [mg/ml resin]	Qb80% (dynamic binding capacity at 80% breakthrough) [5] [mg/ml resin]	Qb10% (dynamic binding capacity at 10% breakthrough) [6] [mg/ml resin]	Qb80% (dynamic binding capacity at 80% breakthrough) [6] [mg/ml resin]	Qb10% (dynamic binding capacity at 10% breakthrough) [7] [mg/ml resin]	Qb80% (dynamic binding capacity at 80% breakthrough) [7] [mg/ml resin]	Qb10% (dynamic binding capacity at 10% breakthrough) [8] [mg/ml resin]	Qb80% (dynamic binding capacity at 80% breakthrough) [8] [mg/ml resin]
Comparative prototype Z(H18S)4 (designed binder)	5.1	4.61	55	67.5	37	62.2	–	–	–	–	–	–	–	–	–
Mutant Z(H18S,N28A)4 (designed binder)	5.68	5.15	–	–	–	–	5.05	45.9	59.1	35.2	56	–	–	–	–
Mutant Z(H18S,P57I)4 (designed binder)	5.44	4.91	–	–	–	–	4.71	–	–	–	–	47	58	35.6	56
